The source of these data is article PMC4620744 (Molecular cell, 2015).

The target in the assay is full-length H2A-H2B (S. cerevisiae, UniProt P04911 1-132; P02293 1-131). The assay can be described thus: ITC.

B1: Pob3-C (domain or fragment)
chain: EVQERLQTALGSDSDEEDINMGSAGEDDESVDEDFQVSSDNDADEVAEEFDSDAALSDAEGGSDEERPSKKPKVE
Turning to B1, binding was put at a Kd of 300 nM and the “stoichiometry N” value turned out to be 1.
